Source: paper PMC2705800, “Nucleocytoplasmic Shuttling of the TACC Protein Mia1p/Alp7p Is Required for Remodeling of Microtubule Arrays during the Cell Cycle” (PLoS ONE, 2009)

Target: T1, MBP-Mia1p-MutNES4 (S. pombe, UniProt Q9URY2 1-474, L461A (AVAAMDQANA; Leu/Ile residues 461, 463, 468 and 470) | I463A (AVAAMDQANA; …)
T1 construct: Cloned into the pAD2a vector (MBP upstream of the multiple cloning site), as m1; also called Mia1-MutNES4; NES mutant version of Mia1p; source: E. coli BL21 (DE3) carrying the pG-KJE8 chaperone plasmid; not shown: MBP, N-terminal, kept
T1 sequence (looked up): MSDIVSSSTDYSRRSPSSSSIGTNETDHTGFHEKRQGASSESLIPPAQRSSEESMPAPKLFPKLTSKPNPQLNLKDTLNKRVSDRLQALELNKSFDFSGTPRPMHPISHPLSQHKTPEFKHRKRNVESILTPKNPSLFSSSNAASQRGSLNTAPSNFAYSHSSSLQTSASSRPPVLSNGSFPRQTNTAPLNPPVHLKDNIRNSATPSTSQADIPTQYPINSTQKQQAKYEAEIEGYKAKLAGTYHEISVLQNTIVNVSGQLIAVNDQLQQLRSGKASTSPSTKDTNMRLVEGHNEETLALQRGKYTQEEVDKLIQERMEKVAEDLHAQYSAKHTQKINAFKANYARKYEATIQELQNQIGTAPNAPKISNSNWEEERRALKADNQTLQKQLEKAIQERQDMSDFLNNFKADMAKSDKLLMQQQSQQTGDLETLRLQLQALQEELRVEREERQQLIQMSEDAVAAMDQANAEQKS
Assay: pull-down; MBP fusion held on amylose resin, incubated 1 hour at 4°C with soluble total lysate of Alp14p-13myc expressing mia1Δ S. pombe cells; Buffer A (20 mM Tris-HCl pH 7.4, 400 mM NaCl, 1 mM EDTA, 10 mM β-mercaptoethanol); washed 3 times; Alp14p-myc detected with anti-myc antibody, MBP proteins by Coomassie
Conditions: one partner purified

ratio of Alp14p-myc pulled down, against MBP-Mia1p: 0.26 ratio to MBP-Mia1p
B1: Alp14p-13myc (natural protein, S. pombe, UniProt O94534 1-809, looked up)
chain: MSQDQEEDYSKLPLESRIVHKVWKVRLSAYEECSKSFSLSADGSDNCFELWNNQSELWKSVLTDSNVAAQEAGTAAFVAYCRFSDPSHLLKAREISVLSISEKCLTSPRAGTRENALEALMLLVEADSAAPVIESIIPSLSARSPKVIASNVAAIASLVEQFGAKVIPSKMIIPHISNLFGHADKNVRKEASRLTVNIYRWTGDPLKDLLFKDLRPVQTKELESLFAELPTEPPKQTRFLKSQQPTSEPNVETQVEEQPALENEESEPEPSDDQFDLVEEVDVLPNVDPNLETLMASSKWKDRKEALDKLLPVLSQPKIKDNDFFNLVAILTKSVSKDANIMVVINAAHCIQAMAKGLRSNFSKYASTSINALLERSKEKKANVIESLSSAMDAVLATSSLDDLAELIASFAGNKNPQIKSSCFSLFSRSFSNMTSLPSKFTVDTCAKACVPGVSDTFEPVRSAAAEALGVLMKLVGERAINQYLSPLDDIRKSKIRSFYETATVKAKAPTKKSKVKPSKQEESKVVVPSNAKAVKKSVVPSSPVVPSPRKATNKSLSMDVSKGNAFENGPLLPRPTTRPVSRGLSRGTSSSLQQKVKASTPLNSGALNETVQNLKNMELDDPAPQPAKHSRVDRYEHPKVLEDNDSTISSLESLKRENEELREQLKVEHEENISMQKQLSELKGELNTLRSARKASPIGDRKPAFMRRANTDFLELSTSPSFQRSVREFEPTRPKLYSSIDVNQRSPLASAKTNGNFTFHAELPRSPFSSRANNINPDWTKAIDLAAKLKQKITEMKQTDQRHQGLIH
notes: Alp14p, TOG protein of Schizosaccharomyces pombe, partner of Mia1p/Alp7p; also called Alp14p-myc; Alp14p/TOG; source: S. pombe mia1Δ cells expressing Alp14p-13myc, total cell lysate
